Experimental data reported in publication PMC11347159, “MUT-7 exoribonuclease activity and localization are mediated by an ancient domain” (Nucleic Acids Research, 2023).

Target: T1, MUT-7^FL/MUT-8^FL complex (Caenorhabditis elegans, UniProt P34607 1-910; Q19672 1-578)
T1 construct: C. elegans exonuclease MUT-7, residues 1-910 (full length); C. elegans MUT-8 (RDE-2), residues 1-578 (full length); Complex formed beforehand by co-expression; also called full-length MUT-7/MUT-8; MUT-7/MUT-8; source: E. coli BL21(DE3) derivative, co-expressed, purified through several chromatographic steps
T1 sequence (looked up) 1: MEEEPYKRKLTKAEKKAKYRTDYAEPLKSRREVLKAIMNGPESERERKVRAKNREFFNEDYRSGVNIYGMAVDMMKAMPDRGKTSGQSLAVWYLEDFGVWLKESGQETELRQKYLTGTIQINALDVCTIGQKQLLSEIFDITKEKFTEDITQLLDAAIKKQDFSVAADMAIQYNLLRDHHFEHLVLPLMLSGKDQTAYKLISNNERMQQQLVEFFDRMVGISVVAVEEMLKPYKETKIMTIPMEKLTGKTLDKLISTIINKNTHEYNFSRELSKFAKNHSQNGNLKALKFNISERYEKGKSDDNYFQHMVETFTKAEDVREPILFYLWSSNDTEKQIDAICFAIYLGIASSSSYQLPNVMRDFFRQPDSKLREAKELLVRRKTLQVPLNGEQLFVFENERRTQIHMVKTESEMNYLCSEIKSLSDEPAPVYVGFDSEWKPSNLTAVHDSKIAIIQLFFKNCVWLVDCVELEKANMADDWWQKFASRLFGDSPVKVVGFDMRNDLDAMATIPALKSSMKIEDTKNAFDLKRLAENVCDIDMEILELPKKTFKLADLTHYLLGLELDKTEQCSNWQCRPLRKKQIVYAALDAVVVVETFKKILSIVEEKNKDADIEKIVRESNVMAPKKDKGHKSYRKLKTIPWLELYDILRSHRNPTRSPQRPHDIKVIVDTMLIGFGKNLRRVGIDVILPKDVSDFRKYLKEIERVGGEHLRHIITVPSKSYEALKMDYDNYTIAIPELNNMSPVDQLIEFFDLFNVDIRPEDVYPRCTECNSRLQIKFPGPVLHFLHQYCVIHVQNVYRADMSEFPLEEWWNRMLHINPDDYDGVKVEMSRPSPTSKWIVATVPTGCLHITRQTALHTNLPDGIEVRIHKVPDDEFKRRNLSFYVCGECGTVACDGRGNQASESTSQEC
T1 sequence (looked up) 2: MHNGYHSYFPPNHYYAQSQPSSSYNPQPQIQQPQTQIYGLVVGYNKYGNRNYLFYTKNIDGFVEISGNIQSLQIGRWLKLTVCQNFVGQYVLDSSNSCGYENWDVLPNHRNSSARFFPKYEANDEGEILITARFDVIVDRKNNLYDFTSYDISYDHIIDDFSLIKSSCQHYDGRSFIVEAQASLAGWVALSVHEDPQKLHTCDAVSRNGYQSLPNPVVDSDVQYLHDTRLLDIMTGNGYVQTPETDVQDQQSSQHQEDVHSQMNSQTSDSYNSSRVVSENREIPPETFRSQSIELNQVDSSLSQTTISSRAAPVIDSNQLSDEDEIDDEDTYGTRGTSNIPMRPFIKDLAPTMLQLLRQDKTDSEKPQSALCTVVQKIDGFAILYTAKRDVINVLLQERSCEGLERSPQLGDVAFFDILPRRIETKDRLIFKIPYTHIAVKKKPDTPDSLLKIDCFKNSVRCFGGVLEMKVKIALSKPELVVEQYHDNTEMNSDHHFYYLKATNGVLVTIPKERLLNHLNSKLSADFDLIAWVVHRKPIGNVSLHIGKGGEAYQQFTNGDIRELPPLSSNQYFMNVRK
Assay: pull-down; purified proteins (5 μM) pre-incubated 30 min at 4°C in 20 mM HEPES/NaOH pH 7.5, 150 mM NaCl, 10% glycerol, 0.05% IGEPAL, 2 mM DTT; GST-tagged MUT-16 constructs held on glutathione resin; SDS-PAGE, Coomassie
Settings: both partners purified

B1: GST-tagged MUT-16^1–724 (domain or fragment, Caenorhabditis elegans, UniProt O62011 1-724, looked up)
chain: MSESDDDYPELDISDQYIDPLGIVVGPPPASYTETDREETPMQNRTEDDTNSYGNSSGEHDYDSYLDSGDDDFDVDAYYANDNMDEPPPETIPDNLIQNVIGRNDNADYDFSDASNPEIMKRDLQLFLSSSLLSNPLKFRSGYSSDELDDCLKSCMGYSLQVTAVLLLPPEIISQLPNDSKTEHAHALVRGGWLQSKEGAFFPVISDSERETVVSLMNGSEEQHKRQERKKKEADTFESEEKEIRTLLTFNMIAELLMAVRNEYSIRSVKYQILSTAYTNMVTGAAHANIFRKYKDILQLDPEKLWNNDWFKEYTNRGTLKKFLTTARFSEIVVSQANGKTVELYFRADDEGNRPVVLFTDEHIADVRNKWKTGNQRNQNYGSQGNYRAGGQRSDDRRGPQQRRNVIVPDPNYQPSTFAGGISNNADDDGSLQPTTSSHFNRNTDRSTSRPPRAPTSPVNRVMETDPLMGQGTSSGAPQRSAIPNPFGGAPALSRSTITNGNRGPSYGDRGERVQDVGDTTSDSEITSEGSYSDEDPEQKEIKRQRRKDKLKKKQERELRSREKHTKSKQQPPSKIETRFNTYKKKSESSATDTSNTPPVDTVNVALPTPVVESSSTTAAPSIPVSTRPEVVVPPENPAPLREVGNFYSKSNHDEDRRNVQLPFTPADTHKPIKVAPKEPVRNPLLKERPSANGFINRRLPSHPAPPPVNQSQPANQPMQTAVY
notes: numbers count on the longer isoform B0379.3a.1 (O62011); also called the longest MUT-16 construct; source: E. coli BL21(DE3) derivative, purified
  binding result: binds

B2: GST-tagged MUT-16^584–724 (domain or fragment, Caenorhabditis elegans, UniProt O62011 584-724, looked up)
chain: KKKSESSATDTSNTPPVDTVNVALPTPVVESSSTTAAPSIPVSTRPEVVVPPENPAPLREVGNFYSKSNHDEDRRNVQLPFTPADTHKPIKVAPKEPVRNPLLKERPSANGFINRRLPSHPAPPPVNQSQPANQPMQTAVY
notes: numbers count on the longer isoform B0379.3a.1 (O62011); source: E. coli BL21(DE3) derivative, purified
  binding result: binds
